Data: patent US20260232759A1, “PEPTIDES THAT INHIBIT INFECTION BY SARS-COV-2, THE VIRUS THAT CAUSES COVID-19 DISEASE” (Wisconsin Alumni Research Foundation, priority 2021, published 2026)
Where two headings read alike, the source gives them in different places. No end group written: not given here.

B1: α/β-SARS2 HRC QE-5 (peptide)
peptide: DISQINASVVNIEYEIXKLEEVAKKLEESLIDLQELGSGSGC
modifications: not fully specified (C-terminus); also: α/β-peptide, β-residue positions not given here, alias: peg4 chol conjugate
B2: α/β-SARS2 HRC QE-7 (peptide)
peptide: DISQINASVVNIEYEIXKLEEVAXKLEESLIDLQELGSGSGC
modifications: not fully specified (C-terminus); also: α/β-peptide, β-residue positions not given here, alias: peg4 chol conjugate
B3: α/β-SARS2 HRC QE-6 (peptide)
peptide: DISQINASVVNIEYEIKKLEEVAXKLEESLIDLQELGSGSGC
modifications: not fully specified (C-terminus); also: α/β-peptide, β-residue positions not given here, alias: peg4 chol conjugate
B4: α/β-SARS2 HRC QE-8 (peptide)
peptide: DISQINASVVNIEYEIXKLEEVAXKLEESLIDLQELGSGSGC
modifications: not fully specified (C-terminus); also: α/β-peptide, β-residue positions not given here, alias: peg4 chol conjugate
B5: α/β-SARS2 HRC QE-15 (peptide)
peptide: DISQINASVVNIEYEIXKLEEVAXKLEESLIDLQELGSGSGC
modifications: not fully specified (C-terminus); also: α/β-peptide, β-residue positions not given here
B6: α/β-SARS2 HRC QE-17 (peptide)
peptide: DISQINASVVNIEYEIXKLEEVAXKLEESLIDLQELGSGSGC
modifications: not fully specified (C-terminus); also: α/β-peptide, β-residue positions not given here

How the values were obtained:
[1] = target: SARS-CoV-2 Spike protein (SARS-CoV-2), P0DTC2; experiment: cell-based or functional assay
[2] = target: SARS-CoV-2 Spike protein (SARS-CoV-2), P0DTC2; experiment: cell-based or functional assay; remark: listed apart in the source

Row | Binder | inhibition of S-mediated cell-cell fusion (β-Gal complementation), IC50 [1] | inhibition of S-mediated cell-cell fusion (β-Gal complementation), IC90 [1] | inhibition of S-mediated cell-cell fusion (β-Gal complementation), IC50 [2]
1 | B1 | 1000 nM | – | –
2 | B2 | 20 nM | 100 nM | 10 nM
3 | B3 | 20 nM | 100 nM | –
4 | B4 | 100 nM | – | –
5 | B5 | – | – | 50 nM
6 | B6 | – | – | 10 nM
